Test results: the domain aggregation screens of Martell et al. (2025)

Assay: soluble fraction after stress (log2 fold change); higher = more stays soluble; pooled small domains, quantitative proteomics
Settings: stress: 50 degC
Outline: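 The stress applied to every library was 50°C. These custom libraries of small protein domains were pooled and measured at high throughput with quantitative proteomics as the read-out. Aggregation propensity is expressed as the base-two logarithm of the fold change in how much of each protein remains soluble. The higher the value, the more of that protein stays in solution.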

Sequence | soluble fraction (log2)
HMLNDTGAIRAAVEEVLAANEKSVNEYKGGKTQAFQYLIGQSMRALRGKAPAQEVTKLLKELLG | -0.263
HMLNQIGVSQKEFDQIHTAIKIALKTSSLTPTGITEKLPKFPPEKTADILRWMADNKEVLLNSEEKYELKT | -0.0315
HMLPAGAAAPLEDGSAPEGYTVKGNADSGLYHEPDGRWYDATVAEFWFKTAADAEAAGFRKAGS | 0.121
HMLPDGEAFVKVNTSLNIRTGPWGQIVGWFHNNDKVKIIGRDGDWYKISHNGQTRYIHSRYVSSSR | -0.913
HMLPDHAPITMRQLAMLHVAKNKLDLTDEDYRSLLLLYGGVESSKQLNQEGLRRVLDRFKELGFEP | -0.0947
HMLPDLLNGRVIPSPEKVIRARLNRGVWELLVQWVGRAPSDATWENLLEFKSAYPSVQLEDALF | -1.45
HMLPDLQKAIDTFLYEVDSRINTSFEELIDKLNSKEEAVAFFLALLEAVRWGFIKAEQESNSINIKK | -0.565
HMLPDSQLMKEATAWFMRQAADDFSGAERRRLDAWRAQSPAHARAYHQVQALWNAPELQQAAAR | -0.0227
HMLPEGIENGDVLTRTDALDYRKWLVTGNQKRIFASTASFYGENFNYSEVKAVSDRVLDAIPDGEPV | -0.0574
HMLPFGHTRLEDGTIQEIPEQIALARKVAEMYKAGFPVMQISIKTEGLLTPRQIYGLMNHWGVKR | -1.24
HMLPIKLDLEIGENVRVVSGPLENFVGSVVSFDTDQQKVKLVVEMFGRKTPVELDFIEVQKLR | -0.435
HMLPIMDRLITAGISINTAKKWVDKFGDKRIKQNLAYSLAKQKEGKVKTNFVGYLAKAIEEDWGSGWE | -0.557
HMLPKAERREQLMAVARSVFAEQGYHTTSMEIIAETAGVSKPLLYQHFPSKLDLYLALLDAGID | -1.56
HMLPKILVMDGKVNKNALTTLGKDEEWVKKVLRNHNIHSIKDVLLALYDTKGKFQYQLYDDYEK | -0.0783
HMLPKNITNTIDHWIQKFPQGKQRSAIIAALHAVQHHNKGFLTNDLLNQVADYIDVPKMNVYEVATFYSM | 0.0843
HMLPLIEVPAVTGKYLTKAKSALKDAGLDTGDIKRVEHEEHGENYVLKQDPPAGTKVPFGTTVSLTVVAP | 0.35
HMLPLLEYLDPFTGKKTYTYLNPDTQHPIFTYYSYQDDKTGRTAYSYIDPLTGKAVNSDEPPMDILYD | -0.441
HMLPPHMEVRAIMILDKRPMALMNIEGEGDGLIVSPGYRFGDGRGRVVSITQTKVVVLWAGTSMEL | -2.28
HMLPQYELIKQYLRHQIETGEWPIGYRTPSEPKLAEQFSVSRMTARRALQELADQGLLSRTAGSGTFVAKP | -0.483

Sequence | soluble fraction (log2)
HMLPVQGEEVAPGLYKFDFPFLADKRVWEKTINAFKAEHPELKVNYIYTGPDELNSKKKTHVLVYVFTES | -0.0974
HMLPVYSITEAAERLDIPASTIKWYADRFASYISPSKGKGRKRFTPEDLATLQKIHELSQDHTTEEAEAML | -0.281
HMLPYKGTVAVSLAVLHKAVGVGTADMLKAVGTLRQGTEVTVTGRNGPFAQLKNGLWMKESFLE | -1.04
HMLQADALADPVGWALRTLGFDLEAGTPERSAIQRSFRQSLIEAHPDHGGADDEAAQRIADITEARRILLA | -0.346
HMLQFTYPRLHTKKSWYVDFMSFDPGAGKMRRKKFMLDGIPKITDRRKRAAELIEVLTKQLRAGWSPWVNV | -3.59
HMLQIADEYLDRLQALFEDVRDNHFAIGDLLVELVDMHDSRRVDVINYIAGRLAISPTTLYDYENTARR | -0.792
HMLQLDATDRALIVATQGGLPLVPRPYQVVGEQLGISGEEVVARLRALLDAGVIRRIGAVPN | -0.283
HMLQLKEPLKKVYERLTPVPKTAETILAELWEKGEYLDIAALHRALMELELSGYVRQSSPGYFGTSA | -0.096
HMLQQKESAALGERLLNQALATLKVEPDAISWDRWEALAKEYGAKSQLDILADIGLGKRLSFVVAQALTKV | -0.535
HMLRDMIIQSYRYYTDKERNPRQVWNRMEADAFWEIIRDYEGYNGDGYVHTKIIPEMEALTVIEMDN | -1.62
HMLRISLAAARVNAEMTQEDVAREMHVSKNTVVNWEKGKSEPTISQSRELSKLYNMPLEYIFYL | -3.05
HMLRKTTDLDAIRSVAKDVIDQNPKAVEDYVGGKESAIGFLLGQVMRATKGTADANTVRELLKEILDS | 0.311
HMLRPMVAILNKNISKGQVISEDYIKFEVRPERQIHGAYHDISEVLGRKTKNNIAAGTILKVRHLDT | -0.201
HMLRQVSDSNALETAVKKVLDANPEEVERYKSGNKKLISFFVGQTMKATKGAGNPKEINSILAKLL | 0.0186
HMLSAEAAAARTAISTLSEDQQRVLGLSIQRGLVHEQIARATGLPLGTVKTHIRRGLIKVREALEAQAAG | -0.00728
HMLSAGETYTLGYLKASDGILFTAADGSEQTVMQRVQVRLYDNGDGTYTARLADDIAYSAVVTEDMIDK | -0.116
HMLSDAAAMESIAYEAIRQMEPDTYYIIGAGTTTRGIMEVLGLKNTLIGVDLIRNKELVANDLGGKELLSY | 0.0353
HMLSDEDMMELAIIENLQRENLNPIEEARAYESLIDKGFTHTEIADKMGKSRPYISNSIRLLSL | 0.162
